Assay results taken from publication PMC12057046, “Elucidation of short linear motif-based interactions of the MIT and rhodanese domains of the ubiquitin-specific protease 8” (Biology Direct, 2025).
Ends that are not written are not given here. * marks the point of attachment. FITC = O=C1OC2(c3ccc(O)cc3Oc3cc(O)ccc32)c2ccc(NC(=S)*)cc21

What was measured:
Conditions in all cases: both partners purified
[1] = molecular target: T1, GST-tagged USP8 MIT domain (1-142) (human, UniProt P40818 1-142); test: peptide or protein array; SPOT array, cellulose-bound peptides; GST-tagged MIT domain 100 µM in 5% skim milk in TBST overnight at 4 °C; detected with HRP-conjugated anti-GST antibody
T1 construct: Ubiquitin carboxyl-terminal hydrolase 8 (USP8), human, MIT domain, residues 1-142; pETM33 vector, synthesized by GenScript; source: E. coli BL21-Gold (DE3), purified (glutathione sepharose, eluted with reduced glutathione)
T1 sequence (looked up): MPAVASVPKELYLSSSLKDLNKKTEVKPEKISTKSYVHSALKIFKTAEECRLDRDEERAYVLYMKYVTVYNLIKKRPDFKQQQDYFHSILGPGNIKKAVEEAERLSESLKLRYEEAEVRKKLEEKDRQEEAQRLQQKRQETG

[2] = molecular target: T2, USP8 rhodanese domain (174-317), GST tag cleaved (human, UniProt P40818 174-317); test: fluorescence polarisation; competitive: 1.5 µM protein preincubated with 10 nM FITC-labeled peptide, displaced by increasing concentration of unlabeled peptide; 50 mM sodium phosphate pH 7.4, 1 mM DTT
T2 construct: Ubiquitin carboxyl-terminal hydrolase 8 (USP8), human, rhodanese domain, residues 174-317; also called Rhod domain; source: E. coli BL21-Gold (DE3), purified (glutathione sepharose, GST cleaved on beads with HRV 3C protease)
T2 sequence (looked up): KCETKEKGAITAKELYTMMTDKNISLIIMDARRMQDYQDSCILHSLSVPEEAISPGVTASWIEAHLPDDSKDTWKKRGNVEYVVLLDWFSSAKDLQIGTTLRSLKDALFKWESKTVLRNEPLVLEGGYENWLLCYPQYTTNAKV

[3] = molecular target: T3, GST-tagged USP8 rhodanese domain (174-317) (human, UniProt P40818 174-317); test: peptide or protein array; SPOT array, cellulose-bound peptides; GST-tagged Rhodanese domain 150 µM in 5% skim milk in TBST overnight at 4 °C; detected with HRP-conjugated anti-GST antibody
T3 construct: Ubiquitin carboxyl-terminal hydrolase 8 (USP8), human, rhodanese domain, residues 174-317; pETM33 vector, synthesized by GenScript; also called Rhod domain; source: E. coli BL21-Gold (DE3), purified (glutathione sepharose, eluted with reduced glutathione)
T3 sequence (looked up): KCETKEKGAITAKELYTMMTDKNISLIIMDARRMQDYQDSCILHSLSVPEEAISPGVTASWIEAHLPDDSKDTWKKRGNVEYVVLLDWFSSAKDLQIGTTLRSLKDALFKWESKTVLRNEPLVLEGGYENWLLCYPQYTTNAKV

[4] = molecular target: T4, USP8 Rhod (174–317) (human, UniProt P40818 174-317); test: fluorescence polarisation; direct binding: constant concentration of FITC-labeled peptide, increasing concentration of the protein; 50 mM sodium phosphate buffer pH 7.4, 1 mM DTT; KD from a fit to a quadratic equation
T4 construct: Ubiquitin carboxyl-terminal hydrolase 8 (USP8), human, UniProt P40818, rhodanese domain, residues 174-317; Construct in the pETM33 vector, synthesized by GenScript; also called USP8_Rhodanese; USP8 rhodanese domain; source: E. coli BL21-Gold (DE3), purified (GSH sepharose)
T4 sequence (looked up): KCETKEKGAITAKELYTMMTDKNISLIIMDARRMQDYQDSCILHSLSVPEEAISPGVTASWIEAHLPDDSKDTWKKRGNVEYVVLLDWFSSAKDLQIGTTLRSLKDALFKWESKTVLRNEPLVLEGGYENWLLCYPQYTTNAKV

B1: DBP 116-131 peptide, cellulose-bound (SPOT array) (peptide)
peptide: YVDLDAFLLEHGLPPS
notes: also called positive control; source: array of predicted peptides: JPT Peptide Technologies
- binding result [1]: binds

B2: DNAJB6 118-130 peptide, cellulose-bound (SPOT array) (peptide, UniProt O75190 118-130, looked up)
peptide: PFEDFFGNRRGPR
notes: DnaJ homolog subfamily B member 6 (DNAJB6), residues 118-130; holds a partial DFx{2,3}R motif; also called DnaJ homolog subfamily B member 6; source: alanine scan: INTAVIS
- binding result [1]: binds

B3: Cadherin-1 863-877 peptide, cellulose-bound (SPOT array) (peptide, UniProt P12830 863-877, looked up)
peptide: NEWGNRFKKLADMYG
notes: cadherin-1 (CDH1), residues 863-877; holds an RFxxL motif; also called CDH1_(863 − 877); source: alanine scan: INTAVIS
- binding result [1]: binds

B4: KIAA1614 568-583 peptide, synthetic (peptide)
peptide: GMERVLGGLSSPLRLL
notes: also called positive control; source: JPT Peptide Technologies; free, unlabelled for fluorescence polarisation (GeneCust, >95% purity)
- Kd [2]: 10 ± 2 µM

B5: TET3 1705-1720 peptide, unlabelled, synthetic (peptide)
peptide: GLALWEAKMKQLAERA
notes: source: synthetic peptide (GeneCust, >95% purity)
- Kd [2]: 33 ± 9 µM

B6: Keratin-85 41-55 peptide, cellulose-bound (SPOT array) (peptide, UniProt P78386 41-55, looked up)
peptide: GVSCYRGLTGFGSRS
notes: Keratin-85 (KRT85), residues 41-55; holds an Rx[LI]xG motif; also called KRT85_(41 − 55); source: bought: JPT Peptide Technologies, cellulose membrane
- binding result [3]: binds

B7: Tumour protein 63 608-622 peptide, cellulose-bound (SPOT array) (peptide, UniProt Q9H3D4 608-622, looked up)
peptide: HEFSSPSHLLRTPSS
notes: holds an SSPxxL[LM] motif; source: alanine scan: INTAVIS
- binding result [3]: binds

B8: FITC-TET3 1705-1720 peptide (Methylcytosine dioxygenase TET3) (peptide)
peptide: {FITC}-GLALWEAKMKQLAERA
notes: also called probe peptide; source: synthetic peptide, bought: GeneCust (France), > 95% purity
- Kd [4]: 0.7 µM
